US20060094101A1 (Pfizer, published 2006)

B1: p53, yeast two-hybrid control bait (other, UniProt P04386 1-147, looked up)
chain: MKLLSSIEQACDICRLKKLKCSKEKPKCAKCLKNNWECRYSPKTKRSPLTRAHLTEVESRLERLEQLFLLIFPREDLDMILKMDSLQDIKALLTGLFVQDNVNKDAVTDRLASVETDMPLTLRQHRISATSSSEESSNKGQRQLTVSPVTETPGPVAPAPATPWPLSSFVPSQKTYQGNYGFHLGFLQSGTAKSVMCTYSPPLNKLFCQLAKTCPVQLWVSATPPAGSRVRAMAIYKKSQHMTEVVRRCPHHERCSDGDGLAPPQHLIRVEGNLYPEYLEDRQTFRHSVVVPYEPPEAGSEYTTIHYKYMCNSSCMGGMNRRPILTIITLEDSSGNLLGRDSFEVRVCACPGRDRRTEEENFRKKEVLCPELPPGSAKRALPTCTSASPPQKKKPLDGEYFTLKIRGRKRFEMFRELNEALELKDAHATEESGDSRAHSSYLKTKKGQSTSRHKKTMVKKVGPDSD
notes: Specificity control bait
B2: Lamin (Clontech), yeast two-hybrid control bait (other, UniProt P04386 1-147, looked up)
chain: MKLLSSIEQACDICRLKKLKCSKEKPKCAKCLKNNWECRYSPKTKRSPLTRAHLTEVESRLERLEQLFLLIFPREDLDMILKMDSLQDIKALLTGLFVQDNVNKDAVTDRLASVETDMPLTLRQHRISATSSSEESSNKGQRQLTVSSEEVVSREVSGIKAAYEAELGDARKTLDSVAKERARLQLELSKVREEFKELKARNTKKEGDLIAAQARLKDLEALLNSKEAALSTALSEKRTLEGELHDLRGQVAKLEAALGEAKKQLQDEMLRRVDAENRLQTMKEELDFQKNIYSEELRETKRRHETRLVEID
notes: Specificity control bait; also called lamin (L)

How the values were obtained:
[1] = target: T1, similar to smoothelin (STS), yeast two-hybrid library clone (yeast; human, UniProt P53814 2-868); test: yeast two-hybrid, growth on SD/-Ade/-His/-Leu/-Trp and blue color on SD/-Leu/-Trp X-α-GAL
T1 construct: Clone from a pretransformed human bone marrow cDNA library
Text: (§1) Independent sequences were transformed into bacteria (DH5 α) from which DNA was subsequently isolated. Next, the DNA was transformed into yeast strain AH109. […] Each independent sequence strain transformed in AH109 was mated with Y187 yeast transformed with each of the three baits. Independent clones which interacted with MK2 and MK2 K93R, but not with empty vector pGBKT7, TPL2, p53, or Lamin, as assayed by their growth on SD/-Ade/-His/-Leu/-Trp and blue color on SD/-Leu/-Trp X-α-GAL, were identified as clones which included DNA inserts encoding specific MK2 interacting proteins (FIG. 9A). […] One protein encoded by an independent DNA sequence characterized was “similar to smoothelin” (STS).

[2] = target: T1, similar to smoothelin (STS), yeast …; test: yeast two-hybrid, growth and color on selective media
Text: as §1

[3] = target: B2; test: as above
Text: as §1

[4] = target: T2, TPL2, yeast two-hybrid control bait (yeast, UniProt P04386 1-147; P41279 1-467, limits assumed); test: yeast two-hybrid, growth on SD/-Ade/-His/-Leu/-Trp and blue color on SD/-Leu/-Trp X-α-GAL
T2 construct: Specificity control bait
Text: as §1

[5] = target: B1; test: as above
Text: as §1

[6] = target: MYC-tagged MK2 (UniProt P49137 1-400, limits assumed); test: cell-based or functional assay
Chain of MYC-tagged MK2 (P49137 whole entry): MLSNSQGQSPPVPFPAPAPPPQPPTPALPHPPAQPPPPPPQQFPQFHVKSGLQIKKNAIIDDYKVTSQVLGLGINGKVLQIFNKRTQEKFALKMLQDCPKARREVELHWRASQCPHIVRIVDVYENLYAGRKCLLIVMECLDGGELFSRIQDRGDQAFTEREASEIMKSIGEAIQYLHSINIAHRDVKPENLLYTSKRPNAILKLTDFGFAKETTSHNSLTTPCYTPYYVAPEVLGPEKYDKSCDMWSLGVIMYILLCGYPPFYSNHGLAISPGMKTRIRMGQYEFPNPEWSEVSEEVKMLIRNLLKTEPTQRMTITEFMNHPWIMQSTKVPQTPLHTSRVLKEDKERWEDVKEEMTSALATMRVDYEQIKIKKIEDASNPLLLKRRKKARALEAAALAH

T1 sequence (P53814 other isoform, or with tags, fused parts or gaps limits assumed): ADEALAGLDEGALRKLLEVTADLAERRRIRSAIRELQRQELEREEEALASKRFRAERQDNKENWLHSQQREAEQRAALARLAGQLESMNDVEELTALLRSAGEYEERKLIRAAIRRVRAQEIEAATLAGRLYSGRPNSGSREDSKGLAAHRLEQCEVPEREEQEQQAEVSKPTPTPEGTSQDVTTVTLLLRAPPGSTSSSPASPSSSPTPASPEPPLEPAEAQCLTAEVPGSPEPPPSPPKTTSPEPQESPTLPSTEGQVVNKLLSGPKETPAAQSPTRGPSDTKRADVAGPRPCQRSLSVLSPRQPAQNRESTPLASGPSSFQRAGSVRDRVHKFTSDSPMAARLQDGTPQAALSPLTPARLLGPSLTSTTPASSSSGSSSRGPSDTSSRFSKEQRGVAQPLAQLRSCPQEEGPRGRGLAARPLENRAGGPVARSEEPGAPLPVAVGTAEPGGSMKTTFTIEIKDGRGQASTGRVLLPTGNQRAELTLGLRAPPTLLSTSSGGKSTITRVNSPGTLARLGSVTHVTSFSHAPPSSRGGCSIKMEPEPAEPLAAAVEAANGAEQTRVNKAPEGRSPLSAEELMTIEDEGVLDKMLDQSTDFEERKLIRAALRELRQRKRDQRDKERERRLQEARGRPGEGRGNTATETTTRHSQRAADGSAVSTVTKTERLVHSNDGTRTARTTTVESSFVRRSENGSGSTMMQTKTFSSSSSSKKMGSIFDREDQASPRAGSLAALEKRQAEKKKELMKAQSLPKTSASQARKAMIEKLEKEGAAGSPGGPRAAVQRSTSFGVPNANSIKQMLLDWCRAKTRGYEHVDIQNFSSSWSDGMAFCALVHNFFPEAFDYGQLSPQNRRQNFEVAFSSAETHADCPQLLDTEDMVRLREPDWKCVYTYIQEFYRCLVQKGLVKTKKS

| Binder | binding result [3] | binding result [4] | binding result [5] | other results |
| --- | --- | --- | --- | --- |
| B1 |  |  |  | binding result [1]: no binding |
| B2 |  |  |  | binding result [2]: no binding |
| human polyhomeotic 2 (HPH2), yeast two-hybrid library clone (other, not shown: large carriers, Clone from a pretransformed human bone marrow cDNA library; also called human polyhomeotic homolog 2) MCLRGGCSPRAPAAAPQPRPPPALPPRPRAPVPASRPGRPLLTPARPCGRMRRGSPGPRLGGSRGERRRPAGRDPARVGPGQGLRRPARPGPAAWTETGQGIVHALTDLSIPGMTSGNGNSASSIAGTAPQNGENKPPQAIVKPQILTHVIEGFVIQEGADVSRWDARLLVGNLKKKYAQGFLPEKLPQQDHTTTTDSEMEEPYLQESKEEGAPLKLKCELCGRVDFAYKFKRSKRFCSMACAKRYNVGCTKRVGLFHSDRSKLQKAGAATHNRRRPAKPVCHHLPRIPRSSQQALCPFRLLLLCVTHSQEDSSRCSDNSSYEEPLSPISASSSTSAGDKASGTWSSPTCICGTWWAWDTTSCQVSHQVNVEDVYEFIRSLPGCQEIAEEFRAQEIDGQALLLLKEDHLMSVMNIKLGPALKIYARISMLKDS | no binding | no binding | no binding |  |
| V5-tagged Shc (V5-p66 Shc A) (other, not shown: small tags and cut ends) MDLLPPKPKYNPLRNESLSSLEEGASGSTPPEELPSPSASSLGPILPPLPGDDSPLPCVPSFPRMSNLKLANPAGGPWGLKGSQERLLKMGKGVQGQPFGLRPLAPPPDMNKLSGGGGRRTRVEGGQLGGEEWTRHGSFVNKPTRGWLHPNDKVMGPGVSYLVRYMGCVEVLQSMRALDFNTRTQVTREAISLVCEAVPGAKGATRRRKPCSRPLSSILGRSNLKFAGMPITLTVSTSSLNLMAADCKQIIANHHMQSISFASGGDPDTAEYVAYVAKDPVNQRACHILECPEGLAQDVISTIGQAFELRFKQYLRNPPKLVTPHDRMAGFDGSAWDEEEEEPPDHQYYNDFPGKEPPLGGVVDMRLREGAARPTLPSAQMSSHLGATLPIGQHAAGDHEVRKQMLPPPPCPGRELFDDPSYVNIQNLDKARQAGGGAGPPNPSLNGSAPRDLFDMKPFEDALRVPPPPQSMSMAEQLQGEPWFHGKLSRREAEALLQLNGDFLVRESTTTPGQYVLTGLQSGQPKHLLLVDPEGVVRTKDHRFESVSHLISYHMDNHLPIISAGSELCLQQPVDRKV |  |  |  | TNF-α biosynthesis (secreted TNF-α by ELISA) in LPS-stimulated RAW264.7 cells [6]: 1.5 fold; basal pHsp 27 levels in HeLa cells (immunoblot, densitometry) [6]: 3 fold |
| src homology and collagen (Shc; Shc A), yeast two-hybrid library clone (other, not shown: large carriers, Clone from a pretransformed human bone marrow cDNA library) MDLLPPKPKYNPLRNESLSSLEEGASGSTPPEELPSPSASSLGPILPPLPGDDSPLPCVPSFPRMSNLKLANPAGGPWGLKGSQERLLKMGKGVQGQPFGLRPLAPPPDMNKLSGGGGRRTRVEGGQLGGEEWTRHGSFVNKPTRGWLHPNDKVMGPGVSYLVRYMGCVEVLQSMRALDFNTRTQVTREAISLVCEAVPGAKGATRRRKPCSRPLSSILGRSNLKFAGMPITLTVSTSSLNLMAADCKQIIANHHMQSISFASGGDPDTAEYVAYVAKDPVNQRACHILECPEGLAQDVISTIGQAFELRFKQYLRNPPKLVTPHDRMAGFDGSAWDEEEEEPPDHQYYNDFPGKEPPLGGVVDMRLREGAARPTLPSAQMSSHLGATLPIGQHAAGDHEVRKQMLPPPPCPGRELFDDPSYVNIQNLDKARQAGGGAGPPNPSLNGSAPRDLFDMKPFEDALRVPPPPQSMSMAEQLQGEPWFHGKLSRREAEALLQLNGDFLVRESTTTPGQYVLTGLQSGQPKHLLLVDPEGVVRTKDHRFESVSHLISYHMDNHLPIISAGSELCLQQPVDRKV | no binding | no binding | no binding |  |
